The experiment has as its target Glucagon receptor (UniProt P47871).
UniProt P47871, sequence (P47871 26-477): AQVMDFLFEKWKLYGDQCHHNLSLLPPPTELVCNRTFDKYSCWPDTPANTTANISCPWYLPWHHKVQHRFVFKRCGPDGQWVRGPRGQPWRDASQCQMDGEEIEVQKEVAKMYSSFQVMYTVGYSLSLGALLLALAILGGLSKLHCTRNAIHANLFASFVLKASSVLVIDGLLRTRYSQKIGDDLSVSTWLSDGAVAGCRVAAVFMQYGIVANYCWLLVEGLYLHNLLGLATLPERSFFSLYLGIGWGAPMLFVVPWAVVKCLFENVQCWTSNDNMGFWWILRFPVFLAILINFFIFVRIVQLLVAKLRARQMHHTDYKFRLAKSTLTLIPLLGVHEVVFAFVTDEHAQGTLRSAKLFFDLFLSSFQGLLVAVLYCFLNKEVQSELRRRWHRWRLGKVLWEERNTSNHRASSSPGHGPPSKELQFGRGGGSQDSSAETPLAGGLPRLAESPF

B1: Gcg-XTEN (ligand)
chain: HSQGTFTSDYSKYLDSRRAQDFVQWLMNTGGTSTPESGSASPGTSPSGESSTAPGTSPSGESSTAPGSTSSTAESPGPGSTSESPSGTAPGSTSSTAESPGPGTSPSGESSTAPGTSTPESGSASPGSTSSTAESPGPGTSPSGESSTAPGTSPSGESSTAPGTSPSGESSTAPG
As for B1, the potency in the Ca2+-flux assay (FLIPR) on a transfected GcgR cell line, relative to unmodified glucagon, molar basis (% of the potency of unmodified glucagon) was 15.

These data come from article PMC2854692.
